From patent US20050182242A1, “Global analysis of protein activities using proteome chips” (priority 2001, published 2005)

Key:
PI(4)P liposomes = test: Yeast proteome chip probed with PI(4)P liposomes; conditions: liposome binding signal on yeast proteome chip, Cy3-streptavidin detection
From the text: (§1) To identify PI-binding proteins in yeast, liposomes were used as probes because the liposome provides the most relevant physiological condition to assay the interactors. Six types of liposomes were used. Each contains phosphatidylcholine (“PC”) with 1% (w/w) N-(biotinoyl)-1,2-dihexadecanoyl-sn-glycero-3-phosphoethanolamine, triethylammonium salt (biotin DHPE). The biotinylated lipid serves as a label that can be detected by Cy3-streptavidin (21). In addition to PC, the five other liposomes contain either 5% (w/w) PI(3)P, PI(4)P, PI(3,4)P2, PI(4,5)P2, or PI(3,4,5)P3 (FIG. 3A).
(§2) The protein-liposome interaction was assayed as follows. Appropriate amounts of each lipid in chloroform were mixed and dried under nitrogen. The lipid mixture was resuspended in TBS buffer by vortexing. The liposomes were created by sonication. Blocked proteome chips were washed three to five times in PBS buffer, and the extra liquid on the glass surface was removed by tapping the slides vertically on a KIMWIPE™. 200 μl of liposome solution was added to the proteome chip and immediately covered by a hydrophobic plastic cover slip (GRACE BIO-LAB™, USA). After trapped air bubbles were removed, the chip was incubated in a humidity chamber at RT for one hour. To remove the cover slip, the chip was immersed into large volume of PBS buffer (50 ml), so that the slip would float away. The chip was then moved to a second PBS bath (>50 ml) and washed 3×5 min with shaking at RT. After removing extra liquid on the surface of the chip, about 100 μl of Cy3 or Cy5 conjugated streptavidin (PIERCE™, USA; 1:2000 to 1:4000 dilution) was added to the surface and covered by a hydrophobic plastic cover slip (GRACE BIO-LABS™, USA). The chip was incubated for greater than 30 min in the dark at RT. The chip was then washed as described above. To completely remove the liquid on the chip, the chip was spun to dryness at 1500-2000 rpm for 5-10 min at RT.
(§3) • 1. S. Fields, Y. Kohara, D. J. Lockhart, Proc. Natl. Acad. Sci. 96, 8825 (1999); A. Goffeau et al., Science 274, 563 (1996). • 2 P. Ross-Macdonald et al., Nature 402, 413 (1999); J. L., DeRisi, V. R. Iyer, P. O. Brown, Science 278, 680 (1997); E. A. Winzeler et al., Science 285, 901 (1999). P. Uetz et al., Nature 403, 623 (2000); T. Ito et al., Proc. Natl. Acad. Sci. USA. 97, 1143 (2000) • 3 H. Zhu, M. Snyder, Curr. Opin. Chem. Biol. 5, 40 (2001). • 4 M. R. Martzen et al., Science 286, 1153 (1999). • 5 H. Zhu et al., Nat. Genet. 26, 283 (2000). • 6 G. MacBeath, S. L. Schreiber, Science 289, 1760 (2000). • 7 A. Caveman, J. Cell Sci. 113, 3543 (2000). • 8 P. Arenkov et al., Anal. Biochem 278, 123 (2000). • 9 D. A. Mitchell, T. K. Marshall, R. J. Deschenes, Yeast 9, 715 (1993). The expression vector pEGH was created by inserting an RGS-HisX6 epitope tag between the GST gene and the polycloning site of pEG(KG). The yeast ORFs were cloned using the strategy described previously (5), except every step was done in a 96-well format. Plasmid DNAs confirmed by DNA sequencing were reintroduced into both yeast (Y258) and E. coli (DH5a). […] 0.1 mM calcium was present in buffers in all subsequent steps. The chip was washed three times with PBS at RT. Cy3-conjugated streptavidin (Jackson IR, USA) (1:5000 dilution) was added to the chip and incubated for 30 min at RT. After extensive washing, the chip was spun dry and scanned using a microarray scanner; the data was subsequently acquired with the GENEPIX™ array densitometry software (Axon, USA). • 12 S. S. Hook, A. R. Means, Annu. Rev. […]

[1] = tested on: phosphatidylcholine (PC) liposomes; test: Yeast proteome chip probed with PC liposomes; conditions: liposome binding signal on yeast proteome chip, Cy3-streptavidin detection
From the text: as §1, §2, §3

PI(3,4,5)P3 liposomes = test: Yeast proteome chip probed with PI(3,4,5)P3 liposomes; conditions: liposome binding signal on yeast proteome chip, Cy3-streptavidin detection
From the text: as §1, §2
(§4) • 1. S. Fields, Y. Kohara, D. J. Lockhart, Proc. Natl. Acad. Sci. 96, 8825 (1999); A. Goffeau et al., Science 274, 563 (1996). • 2 P. Ross-Macdonald et al., Nature 402, 413 (1999); J. L., DeRisi, V. R. Iyer, P. O. Brown, Science 278, 680 (1997); E. A. Winzeler et al., Science 285, 901 (1999). P. Uetz et al., Nature 403, 623 (2000); T. Ito et al., Proc. Natl. Acad. Sci. USA. 97, 1143 (2000) • 3 H. Zhu, M. Snyder, Curr. Opin. Chem. Biol. 5, 40 (2001). • 4 M. R. Martzen et al., Science 286, 1153 (1999). • 5 H. Zhu et al., Nat. Genet. 26, 283 (2000). • 6 G. MacBeath, S. L. Schreiber, Science 289, 1760 (2000). • 7 A. Caveman, J. Cell Sci. 113, 3543 (2000). • 8 P. Arenkov et al., Anal. Biochem 278, 123 (2000). • 9 D. A. Mitchell, T. K. Marshall, R. J. Deschenes, Yeast 9, 715 (1993). The expression vector pEGH was created by inserting an RGS-HisX6 epitope tag between the GST gene and the polycloning site of pEG(KG). The yeast ORFs were cloned using the strategy described previously (5), except every step was done in a 96-well format. Plasmid DNAs confirmed by DNA sequencing were reintroduced into both yeast (Y258) and E. coli (DH5a). […] 0.1 mM calcium was present in buffers in all subsequent steps. The chip was washed three times with PBS at RT. Cy3-conjugated streptavidin (Jackson IR, USA) (1:5000 dilution) was added to the chip and incubated for 30 min at RT. After extensive washing, the chip was spun dry and scanned using a microarray scanner; the data was subsequently acquired with the GENEPIX™ array densitometry software (Axon, USA). • 12 S. S. Hook, A. R. Means, Annu. Rev. Pharmacol. Toxicol.41, 471 (2001). • 13 M. S. Cyert, R. Kunisawa, D. Kaim, J. Thorner, Proc. Natl. Acad. Sci. USA 88, 7376 (1991). • 14 D. A. Stirling, K. A. Welch, M. J. Stark, EMBO J. 13, 4329 (1994). • 15 F. Bohl, Kruse, EMBO J. 19, 5514 (2000); E. Bertrand et al., Mol. Cell 2, 437 (1998). • 16 D. C. Winter, E. Y. Choe, R. Li, Proc. Nat. Acad Sci. USA 96, 7288 (1999). • 17 C.

PI(3,4)P2 liposomes = test: Yeast proteome chip probed with PI(3,4)P2 liposomes; conditions: liposome binding signal on yeast proteome chip, Cy3-streptavidin detection
From the text: as §1, §2, §4

PI(4,5)P2 liposomes = test: Yeast proteome chip probed with PI(4,5)P2 liposomes; conditions: liposome binding signal on yeast proteome chip, Cy3-streptavidin detection
From the text: as §1, §2, §4

six different liposomes = test: Reverse membrane assay: proteins spotted on nitrocellulose probed with six liposomes; format: binding; conditions: HRP-conjugated streptavidin
Experimental: B. A reverse assay was carried out to test for protein-lipid interactions. The proteins were prepared and spotted onto nitrocellulose filters in a dilution series and probed with the six different liposomes. As a control, the six liposomes were also added to the BSA-blocked membrane. After extensive washing, the bound liposomes were detected using an HRP-conjugated streptavidin and an ECL kit.
C. Linear correlation between the binding signals and the amounts of Rim15p in a membrane assay. When liposome-binding signals of Rim15p from the membrane assay (FIG. 4B) were plotted against the concentration gradient of the spotted Rim15p, the binding signals of PI(4)P, PI(3,4)P2, PI(3)P, and PI(4,5)P2 correlated linearly with the amounts of Rim15p.
Therefore, six proteins, i.e., Rim15p, Eno2p, Hxk1p, Sps1p, Yg1059wp, and Gcn2p, were further tested for phosphoinositol binding using two types of standard assays (Williamson, 2000, Nat. Struct Biol. 7(10):834-7). For Rim15p, Eno2p, and Hxk1p, PI(4,5)P2 liposomes were first adhered to a nitrocellulose membrane, which was then blocked by BSA; different amounts of the GST fusion proteins and a GST control were used to probe the membrane, and bound proteins were detected using anti-GST antibodies. […] We also carried out the reverse assay for four GST fusion proteins, Rim15p, Sps1p, Yg1059wp, and Gcn2p (Guerra et al., 2000, Biosci. Rep. 20: 41). Different amounts of these purified proteins were spotted onto nitrocellulose filters and probed with the six different liposomes (FIG. 5B). The bound liposomes were detected using a horseradish peroxidase (“HRP”)-conjugated streptavidin.

PI(3)P liposomes = test: Yeast proteome chip probed with PI(3)P liposomes; conditions: liposome binding signal on yeast proteome chip, Cy3-streptavidin detection
From the text: as §1
The protein-liposome interaction was assayed as follows. Appropriate amounts of each lipid in chloroform were mixed and dried under nitrogen. The lipid mixture was resuspended in TBS buffer by vortexing. The liposomes were created by sonication. Blocked proteome chips were washed three to five times in PBS buffer, and the extra liquid on the glass surface was removed by tapping the slides vertically on a KIMWIPE™. 200 μl of liposome solution was added to the proteome chip and immediately covered by a hydrophobic plastic cover slip (GRACE BIO-LAB™, USA). After trapped air bubbles were removed, the chip was incubated in a humidity chamber at RT for one hour. To remove the cover slip, the chip was immersed into large volume of PBS buffer (50 ml), so that the slip would float away. […]

calmodulin = target: T1, calmodulin (Homo sapiens, UniProt P0DP23); test: Yeast proteome chip probed with biotinylated calmodulin; format: binding; conditions: biotinylated calmodulin in the presence of calcium
T1 construct: purchased CalBiochem, USA
From the text: To test for protein-protein interactions, the yeast proteome was probed with calmodulin (11). Calmodulin is a highly conserved calcium-binding protein involved in many calcium-regulated cellular processes and has many known physical partners (Hook et al., 2001, Annu. Rev. Pharmacol. Toxicol. 41:471). The calmodulin probe was biotinylated, and bound probe was detected using Cy3-labeled streptavidin. As a control, the yeast proteome was probed with Cy3-labeled streptavidin alone.
Generally, protein-protein interactions can be assayed as follows. Blocked proteome chips are washed three to five times in PBS buffer, and the extra liquid on the glass surface is removed by tapping the slides vertically on a KIMWIPE™. 200 ∞l of biotinylated protein probe is added to the proteome chip and immediately covered by a hydrophobic plastic cover slip (GRACE BIO-LABS™, USA). After trapped air bubbles are removed, the chip is incubated in a humidity chamber at room temperature (RT) for one hour. To remove the cover slip, the chip is immersed into large volume of PBS buffer (>50 ml), and the slip should float away. The chip is then moved to a second PBS bath (>50 ml) and washed 3×5 min with shaking at RT. […]

| Substance | PI(4)P (PI(4)P liposomes) | PC [1] | PI(3, 4, 5)P3 (PI(3,4,5)P3 liposomes) | PI(3, 4)P2 (PI(3,4)P2 liposomes) | PI(4, 5)P2 (PI(4,5)P2 liposomes) | liposome binding in reverse membrane assay (six different liposomes) | PI(3)P (PI(3)P liposomes) | calmodulin binding (calmodulin) |
| --- | --- | --- | --- | --- | --- | --- | --- | --- |
| SSB1: yeast GST-HisX6 fusion protein on proteome chip | 16.98 | 12.91 | 4.27 | 6.28 | 1.31 |  |  |  |
| GCN2: yeast GST-HisX6 fusion protein on proteome chip | 1356.97 | 1087.04 | 975.60 | 232.01 | 505.60 | bound strongest to PI(3)P and PI(4)P and PI(3,4)P2 | 26.50 |  |
| RRP5: yeast GST-HisX6 fusion protein on proteome chip | 60.31 | 58.11 | 21.26 | 22.60 | 73.38 |  |  |  |
| PET9: yeast GST-HisX6 fusion protein on proteome chip |  | 14.97 | 17.66 | −5.81 | 26.13 |  |  |  |
| SDS3: yeast GST-HisX6 fusion protein on proteome chip | 11.76 |  | 9.67 | 3.45 | 4.35 |  |  |  |
| Arc35p: component of the Arp2/3 actin-organizing complex |  |  |  |  |  |  |  | identified |
